Source: publication PMC4895691, “Suppressor of IKKɛ is an essential negative regulator of pathological cardiac hypertrophy” (Nature Communications, 2016)

Target: T1, Flag-tagged TBK1 (TANK-binding kinase 1), human, full length (human, UniProt Q9UHD2 1-729)
T1 construct: entire coding region cloned into the EcoRI and XhoI sites of pSicoR-Flag-C1; also called Flag-TBK1; pSicoR-Flag-TBK1; source: HEK293T, transfected, in lysate (co-IP); immunopurified from HEK293T and eluted with FLAG peptide (GST pull-down)
T1 sequence (looked up): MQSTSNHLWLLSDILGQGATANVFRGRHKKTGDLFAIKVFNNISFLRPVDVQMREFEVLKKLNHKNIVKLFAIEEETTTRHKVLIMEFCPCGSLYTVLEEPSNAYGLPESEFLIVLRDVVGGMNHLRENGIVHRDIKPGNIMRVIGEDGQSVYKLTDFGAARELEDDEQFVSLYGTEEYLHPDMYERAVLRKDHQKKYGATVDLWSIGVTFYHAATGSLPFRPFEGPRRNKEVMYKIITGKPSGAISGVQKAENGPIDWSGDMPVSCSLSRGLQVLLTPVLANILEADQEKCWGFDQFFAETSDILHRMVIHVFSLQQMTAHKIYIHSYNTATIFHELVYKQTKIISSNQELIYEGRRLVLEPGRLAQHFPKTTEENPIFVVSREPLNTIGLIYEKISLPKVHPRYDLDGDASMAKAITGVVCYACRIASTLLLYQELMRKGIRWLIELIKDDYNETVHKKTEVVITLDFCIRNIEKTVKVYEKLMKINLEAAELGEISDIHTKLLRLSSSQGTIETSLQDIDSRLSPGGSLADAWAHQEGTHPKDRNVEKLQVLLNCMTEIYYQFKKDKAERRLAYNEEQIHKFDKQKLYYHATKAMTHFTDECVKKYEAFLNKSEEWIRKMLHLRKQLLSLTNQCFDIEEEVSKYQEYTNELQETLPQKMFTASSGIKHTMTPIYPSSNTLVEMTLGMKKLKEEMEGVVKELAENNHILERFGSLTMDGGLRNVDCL
Assay: pull-down; GST-SIKE from E. coli on glutathione-sepharose 4B beads incubated 4 h at 4 °C with immunopurified Flag-TBK1 from HEK293T; washed with IP lysis buffer, eluted with 20 mM reduced glutathione; anti-FLAG blot; GST tag as negative control
Settings: both partners purified

binding result: binds
B1: GST-SIKE fusion protein, human SIKE (natural protein, UniProt Q9BRV8 1-207, looked up)
chain: MSCTIEKILTDAKTLLERLREHDAAAESLVDQSAALHRRVAAMREAGTALPDQYQEDASDMKDMSKYKPHILLSQENTQIRDLQQENRELWISLEEHQDALELIMSKYRKQMLQLMVAKKAVDAEPVLKAHQSHSAEIESQIDRICEMGEVMRKAVQVDDDQFCKIQEKLAQLELENKELRELLSISSESLQARKENSMDTASQAIK
notes: Suppressor of IKKɛ (SIKE), human; human SIKE gene cloned into pGEX-4T-1; also called pGEX-4T-1-GST-SIKE; source: E. coli Rosetta (DE3), purified on glutathione-sepharose 4B beads
